Data on five molecules can be found in patent US20150050283A1 (TORAY INDUSTRIES, published 2015).

Assay [1] addresses T1, human CAPRIN-1 protein having the amino acid sequence of SEQ ID NO: 2 (human, UniProt Q14444 1-709, limits assumed).
T1 construct: also called CAPRIN-1 proteins
T1 sequence: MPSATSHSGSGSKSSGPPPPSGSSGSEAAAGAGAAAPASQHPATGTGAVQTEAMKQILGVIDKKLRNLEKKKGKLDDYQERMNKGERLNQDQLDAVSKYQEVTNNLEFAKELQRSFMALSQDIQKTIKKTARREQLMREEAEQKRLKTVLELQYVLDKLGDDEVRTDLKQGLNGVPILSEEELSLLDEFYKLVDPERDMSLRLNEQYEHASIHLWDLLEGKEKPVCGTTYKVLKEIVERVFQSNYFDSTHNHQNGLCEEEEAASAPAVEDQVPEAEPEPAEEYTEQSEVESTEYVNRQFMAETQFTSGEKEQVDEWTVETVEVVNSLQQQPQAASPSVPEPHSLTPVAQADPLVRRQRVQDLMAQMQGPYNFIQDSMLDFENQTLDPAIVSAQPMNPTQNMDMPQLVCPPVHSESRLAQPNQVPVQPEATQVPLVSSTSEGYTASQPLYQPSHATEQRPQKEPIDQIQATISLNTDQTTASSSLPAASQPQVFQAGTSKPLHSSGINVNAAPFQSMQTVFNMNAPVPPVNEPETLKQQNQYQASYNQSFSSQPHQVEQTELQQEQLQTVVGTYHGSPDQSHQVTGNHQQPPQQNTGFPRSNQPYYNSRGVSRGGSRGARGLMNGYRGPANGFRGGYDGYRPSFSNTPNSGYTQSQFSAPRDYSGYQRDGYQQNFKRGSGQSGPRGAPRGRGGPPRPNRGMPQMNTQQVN
Briefly: ELISA as in Example 9(3).

In assay [2] the target is T2, partial CAPRIN-1 polypeptide consisting of the amino acid sequence of SEQ ID NO: 5 (human).
T2 construct: Synthetic peptide immobilized on ELISA plates
T2 peptide: ATQVPLVSSTSEGYTA
Description: peptide ELISA as in Example 9(3). In general terms: An ELISA detects its analyte on a solid surface through an enzyme-linked reagent.

Assay [3] deals with T3, CAPRIN-1 protein on the cell membrane surface of human cancer cell lines (human, UniProt Q14444 2-709).
T3 construct: whole, on cells; Endogenous CAPRIN-1 on human cancer cell lines (MDA-MB-231V, QG56, DLD-1, Capan-2 and others); The cells were not transfected; also called CAPRIN-1 on cancer cell surface
T3 sequence (looked up): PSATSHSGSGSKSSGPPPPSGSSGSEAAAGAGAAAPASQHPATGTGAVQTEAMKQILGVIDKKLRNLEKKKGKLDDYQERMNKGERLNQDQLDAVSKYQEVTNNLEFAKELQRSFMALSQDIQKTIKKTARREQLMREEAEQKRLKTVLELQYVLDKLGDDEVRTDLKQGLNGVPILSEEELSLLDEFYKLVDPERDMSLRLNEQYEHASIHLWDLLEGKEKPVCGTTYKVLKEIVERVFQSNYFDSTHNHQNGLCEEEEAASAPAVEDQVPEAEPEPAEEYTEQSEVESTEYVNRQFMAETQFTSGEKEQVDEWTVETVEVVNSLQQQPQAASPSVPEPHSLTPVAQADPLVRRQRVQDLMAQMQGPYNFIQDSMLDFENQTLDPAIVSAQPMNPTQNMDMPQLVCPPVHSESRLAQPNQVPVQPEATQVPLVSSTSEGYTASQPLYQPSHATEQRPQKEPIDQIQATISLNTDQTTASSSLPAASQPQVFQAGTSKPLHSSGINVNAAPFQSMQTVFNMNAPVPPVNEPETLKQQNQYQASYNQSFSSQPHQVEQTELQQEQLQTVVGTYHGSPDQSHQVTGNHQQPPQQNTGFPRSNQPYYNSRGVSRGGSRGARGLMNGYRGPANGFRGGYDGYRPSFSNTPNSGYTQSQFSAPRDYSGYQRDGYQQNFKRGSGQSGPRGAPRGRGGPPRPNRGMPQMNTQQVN
Description: flow cytometry on human cancer cell lines as in Example 9(3). In general terms: A flow cytometer gives signals particle by particle.

The target of assay [4] is T2, partial CAPRIN-1 polypeptide consisting …. Briefly: ELISA on immobilized peptides, antibody at 0.1 µg/mL.
Description: Each peptide was dissolved at a concentration of 30 μg/ml in a 0.1 M sodium carbonate buffer solution (pH 9.6). […] The solution in each well was discarded, and 10 mM ethanolamine/0.1 M sodium carbonate buffer solution (PH 9.6) was added thereto at a concentration of 200 μL/well and left standing at room temperature for 1 hour. Then, the solution in each well was discarded, and each well was washed twice with PBS containing 0.5% Tween 20 (PBST) to prepare a peptide-immobilized plate. For verification, CAPRIN-1 proteins were immobilized on wells of this plate to prepare another plate according to the method described above. […] After shaking at room temperature for 1 hour, the solution in each well was discarded, and each well was washed three times with PBST. Next, a secondary antibody solution containing HRP-labeled anti-rabbit IgG antibodies diluted 3000- to 4000-fold with PBST was added thereto at a concentration of 50 μL/well. Then, the solution in each well was discarded, and each well was washed six times with PBST. A TMB substrate solution (manufactured by Thermo Fisher Scientific Inc.) was added thereto at a concentration of 100 μL/well and left standing for 15 to 30 minutes to cause color reaction. […] The absorbance was measured at 450 nm and 595 nm using an absorption spectrometer.
Assay [5] shares this target. Description: ELISA as in Example 9(1), purified antibody.

Where a chain is given by its changes, count along the chain named.

B1: humanized anti-CAPRIN-1 antibody #2 (antibody, V domains shown)
VH: EVQLVESGGGLVQPGGSLRLSCAASGFSFSGSYYMSWVRQAPGKGLEWIAYIYIGDGVTAYANWAKGRFTISKDNSKNTLYLQMNSLRAEDTAVYFCARGNKLWGPGTLVTVSS
VL: DIQMTQSPSSLSASVGDRVTIKCQASQSISSYLAWYQQKPGKAPKRLIYDASNLDSGVPSRFSGSGSGTDFTFTISSLQPEDIATYYCQCTAVSSATIYGNAFGGGTKVEIK
notes: Human IgG1 heavy chain constant region and 'human IgG1 light chain constant region'; also called humanized rabbit anti-CAPRIN-1 monoclonal antibody #2; humanized anti-CAPRIN-1 monoclonal antibody #2
On to B1, for which the binding result in assay [1], in assay [2] and in assay [3] was “binds” throughout.

B2: humanized anti-CAPRIN-1 antibody #3 (antibody, V domains shown)
VH: B1 VH with K73R, F96Y
VL: B1 VL
notes: Human IgG1 heavy chain constant region and 'human IgG1 light chain constant region'; also called humanized rabbit anti-CAPRIN-1 monoclonal antibody #3; humanized anti-CAPRIN-1 monoclonal antibody #3
Turning to B2, the binding result in assay [1], in assay [2] and in assay [3] was “binds” in each case.

B3: humanized anti-CAPRIN-1 antibody #1 (antibody, V domains shown)
VH: B1 VH with E1Q, Q13K, K73R, S76A, T79S, K102R, P106Q
VL: B1 VL with S14A, A43P
notes: Human IgG1 heavy chain constant region and 'human IgG1 light chain constant region'; also called humanized rabbit anti-CAPRIN-1 monoclonal antibody #1; humanized anti-CAPRIN-1 monoclonal antibody #1
Consider B3, for which the binding result in assay [1], in assay [2] and in assay [3] was “binds” throughout.

B4: rabbit anti-CAPRIN-1 monoclonal antibody #1 (antibody, V domains shown)
VH: QSLEESGGDLVKPGASLTLTCTASGFSFSGSYYMSWVRQAPGKGLEWIAYIYIGDGVTAYANWAKGRFTISKASSTTVTLQMTSLTAADTATYFCARGNKLWGPGTLVTVSS
VL: DVVMTQTPASVEAAVGGTVTIKCQASQSISSYLAWYQQKPGQPPKRLIYDASNLDSGVPSRFKGSGSGTDFTITISDLECADAATYYCQCTAVSSATIYGNAFGGGTEVVVK
notes: Rabbit hybridoma monoclonal antibody; also called rabbit anti-CAPRIN-1 antibody #1
Take B4: the binding result in assay [4] was “binds”.

B5: human-rabbit chimeric anti-CAPRIN-1 antibody #1 (antibody, human IgG1, V domains shown)
VH: B4 VH
VL: B4 VL
notes: also called human-rabbit chimeric anti-CAPRIN-1 monoclonal antibody #1
On to B5, for which the binding result in assay [5] is recorded as “binds”.
